Measured values reported in paper PMC7504130.

Each sequence was assayed against PARP-1 (UniProt P09874) (assay: EMSA). Conditions: EMSA: 20 mM Tris-HCl pH 8, 30 mM KCl, 1.5 mM MgCl2, 1 mM DTT, 8% glycerol, 50 uM ZnAc, 2.5 ng/mL poly[dI-dC], 25 C, 50 nM DNA; pull-down: 20 mM Tris-HCl pH ….
PARP-1, sequence (P09874 2-1014): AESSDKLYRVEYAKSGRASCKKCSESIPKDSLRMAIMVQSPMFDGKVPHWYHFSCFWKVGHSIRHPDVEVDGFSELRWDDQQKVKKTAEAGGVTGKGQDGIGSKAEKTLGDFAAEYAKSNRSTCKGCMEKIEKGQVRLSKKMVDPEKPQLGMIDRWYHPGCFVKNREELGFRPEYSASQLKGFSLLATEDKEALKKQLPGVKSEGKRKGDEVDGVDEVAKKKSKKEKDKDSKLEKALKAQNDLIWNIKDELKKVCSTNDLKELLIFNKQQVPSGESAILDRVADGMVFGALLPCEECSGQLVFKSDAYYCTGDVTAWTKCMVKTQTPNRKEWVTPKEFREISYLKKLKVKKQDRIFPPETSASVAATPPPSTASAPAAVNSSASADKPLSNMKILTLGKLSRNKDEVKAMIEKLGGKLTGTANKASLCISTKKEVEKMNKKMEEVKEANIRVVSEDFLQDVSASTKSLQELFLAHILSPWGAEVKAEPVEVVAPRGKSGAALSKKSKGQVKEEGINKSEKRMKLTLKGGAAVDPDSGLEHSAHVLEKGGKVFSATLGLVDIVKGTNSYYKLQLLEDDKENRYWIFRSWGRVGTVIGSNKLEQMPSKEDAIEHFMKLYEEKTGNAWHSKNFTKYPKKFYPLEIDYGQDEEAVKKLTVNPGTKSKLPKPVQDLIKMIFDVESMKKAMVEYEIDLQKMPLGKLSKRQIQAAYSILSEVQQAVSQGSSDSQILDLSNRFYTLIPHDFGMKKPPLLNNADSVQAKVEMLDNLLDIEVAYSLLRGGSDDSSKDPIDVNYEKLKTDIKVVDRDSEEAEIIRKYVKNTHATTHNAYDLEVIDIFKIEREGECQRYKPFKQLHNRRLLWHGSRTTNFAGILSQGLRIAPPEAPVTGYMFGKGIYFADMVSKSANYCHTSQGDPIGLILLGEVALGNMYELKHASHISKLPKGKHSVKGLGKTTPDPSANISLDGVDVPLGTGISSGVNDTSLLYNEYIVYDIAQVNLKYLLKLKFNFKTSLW

Sequence | Kd
AGGGCGGTGTGGGAAGAGGGAAGAGGGGGAGG [Cy5.5-32R (G4 32R)] | 200 nM
CGGGCCGGCGGGGGAGGAGCGGGGGCCGGGC [Cy5.5-mid2 (G4 mid2)] | 370 nM
CGGGGAGAAGGAGGGGGCCGGGCCGGGC [Cy5.5-mid1 (G4 mid1)] | 360 nM
